Reference: patent publication US10584350B2, “Structurally modified COI1” (Board of Trustees of Michigan State University, priority 2016, dated 2020)
Changes are numbered by the printed parent chain. In names and notes the source's numbering stands.

B1: Y386: COI1 alanine substitution mutant at Y386 (protein, UniProt O04197 1-592, looked up, variant Y386A)
Coronatine-insensitive …: MEDPDIKRCKLSCVATVDDVIEQVMTYITDPKDRDSASLVCRRWFKIDSETREHVTMALCYTATPDRLSRRFPNLRSLKLKGKPRAAMFNLIPENWGGYVTPWVTEISNNLRQLKSVHFRRMIVSDLDLDRLAKARADDLETLKLDKCSGFTTDGLLSIVTHCRKIKTLLMEESSFSEKDGKWLHELAQHNTSLEVLNFYMTEFAKISPKDLETIARNCRSLVSVKVGDFEILELVGFFKAAANLEEFCGGSLNEDIGMPEKYMNLVFPRKLCRLGLSYMGPNEMPILFPFAAQIRKLDLLYALLETEDHCTLIQKCPNLEVLETRNVIGDRGLEVLAQYCKQLKRLRIERGADEQGMEDEEGLVSQRGLIALAQGCQELEYMAVAVSDITNESLESIGTYLKNLCDFRLVLLDREERITDLPLDNGVRSLLIGCKKLRRFAFYLRQGGLTDLGLSYIGQYSPNVRWMLLGYVGESDEGLMEFSRGCPNLQKLEMRGCCFSERAIAAAVTKLPSLRYLWVQGYRASMTGQDLMQMARPYWNIELIPSRRVPEVNQQGEIREMEHPAHILAYYSLAGQRTDCPTTVRVLKEPI
B2: L412: COI1 alanine substitution mutant at L412 (protein, UniProt O04197 1-592, looked up, variant L412A)
Coronatine-insensitive …: B1 Coronatine-insensitive … with A386Y, L412A
B3: R516: COI1 alanine substitution mutant at R516 (protein, UniProt O04197 1-592, looked up, variant R516A)
Coronatine-insensitive …: B1 Coronatine-insensitive … with A386Y, R516A
B4: F443: COI1 alanine substitution mutant at F443 (protein, UniProt O04197 1-592, looked up, variant F443A)
Coronatine-insensitive …: B1 Coronatine-insensitive … with A386Y, F443A
B5: Y444A: COI1 alanine substitution mutant at Y444 (protein)
chain: B1 Coronatine-insensitive … with A386Y, Y444A
B6: L469: COI1 alanine substitution mutant at L469 (protein, UniProt O04197 1-592, looked up, variant L469A)
Coronatine-insensitive …: B1 Coronatine-insensitive … with A386Y, L469A
B7: R415: COI1 alanine substitution mutant at R415 (protein, UniProt O04197 1-592, looked up, variant R415A)
Coronatine-insensitive …: B1 Coronatine-insensitive … with A386Y, R415A
B8: L410: COI1 alanine substitution mutant at L410 (protein, UniProt O04197 1-592, looked up, variant L410A)
Coronatine-insensitive …: B1 Coronatine-insensitive … with A386Y, L410A
B9: R121: COI1 alanine substitution mutant at R121 (protein, UniProt O04197 1-592, looked up, variant R121A)
Coronatine-insensitive …: B1 Coronatine-insensitive … with R121A, A386Y
B10: V411: COI1 alanine substitution mutant at V411 (protein, UniProt O04197 1-592, looked up, variant V411A)
Coronatine-insensitive …: B1 Coronatine-insensitive … with A386Y, V411A
B11: Y302A: COI1 alanine substitution mutant at Y302 (protein)
chain: B1 Coronatine-insensitive … with Y302A, A386Y
B12: M88: COI1 alanine substitution mutant at M88 (protein, UniProt O04197 1-592, looked up, variant M88A)
Coronatine-insensitive …: B1 Coronatine-insensitive … with M88A, A386Y
B13: L91: COI1 alanine substitution mutant at L91 (protein, UniProt O04197 1-592, looked up, variant L91A)
Coronatine-insensitive …: B1 Coronatine-insensitive … with L91A, A386Y
B14: Q491: COI1 alanine substitution mutant at Q491 (protein, UniProt O04197 1-592, looked up, variant Q491A)
Coronatine-insensitive …: B1 Coronatine-insensitive … with A386Y, Q491A
B15: R326A: COI1 alanine substitution mutant at R326 (protein)
chain: B1 Coronatine-insensitive … with R326A, A386Y
B16: K492: COI1 alanine substitution mutant at K492 (protein, UniProt O04197 1-592, looked up, variant K492A)
Coronatine-insensitive …: B1 Coronatine-insensitive … with A386Y, K492A
B17: R348: COI1 alanine substitution mutant at R348 (protein, UniProt O04197 1-592, looked up, variant R348A)
Coronatine-insensitive …: B1 Coronatine-insensitive … with R348A, A386Y
B18: D354: COI1 alanine substitution mutant at D354 (protein, UniProt O04197 1-592, looked up, variant D354A)
Coronatine-insensitive …: B1 Coronatine-insensitive … with D354A, A386Y
B19: L413: COI1 alanine substitution mutant at L413 (protein, UniProt O04197 1-592, looked up, variant L413A)
Coronatine-insensitive …: B1 Coronatine-insensitive … with A386Y, L413A
B20: R85A: COI1 alanine substitution mutant at R85 (protein)
chain: B1 Coronatine-insensitive … with R85A, A386Y
B21: L470: COI1 alanine substitution mutant at L470 (protein, UniProt O04197 1-592, looked up, variant L470A)
Coronatine-insensitive …: B1 Coronatine-insensitive … with A386Y, L470A
B22: R351: COI1 alanine substitution mutant at R351 (protein, UniProt O04197 1-592, looked up, variant R351A)
Coronatine-insensitive …: B1 Coronatine-insensitive … with R351A, A386Y
B23: F89: COI1 alanine substitution mutant at F89 (protein, UniProt O04197 1-592, looked up, variant F89A)
Coronatine-insensitive …: B1 Coronatine-insensitive … with F89A, A386Y
B24: R440: COI1 alanine substitution mutant at R440 (protein, UniProt O04197 1-592, looked up, variant R440A)
Coronatine-insensitive …: B1 Coronatine-insensitive … with A386Y, R440A
B25: E173: COI1 alanine substitution mutant at E173 (protein, UniProt O04197 1-592, looked up, variant E173A)
Coronatine-insensitive …: B1 Coronatine-insensitive … with E173A, A386Y
B26: G357: COI1 alanine substitution mutant at G357 (protein, UniProt O04197 1-592, looked up, variant G357A)
Coronatine-insensitive …: B1 Coronatine-insensitive … with G357A, A386Y
B27: Y472: COI1 alanine substitution mutant at Y472 (protein, UniProt O04197 1-592, looked up, variant Y472A)
Coronatine-insensitive …: B1 Coronatine-insensitive … with A386Y, Y472A
B28: D407: COI1 alanine substitution mutant at D407 (protein, UniProt O04197 1-592, looked up, variant D407A)
Coronatine-insensitive …: B1 Coronatine-insensitive … with A386Y, D407A

How the values were obtained:
COI1-JAZ9 interaction [1] = assay: Quantitative liquid Y2H assays (Beta-Glo, RLU); format: cell-based, Arabidopsis; conditions: yeast
Procedure: (§1) Yeast EGY48 strain carrying the p8Op:LacZ reporter plasmid was co-transformed with pGilda:COI1 (or COI1 mutants) and pB42AD:JAZ9 (or other JAZs) (Clontech). Colonies were selected on SD minimal plates (BD Biosciences) supplemented with the—uracil (U)/-tryptophan (W)/-histidine (H) amino acid drop out solution (Clontech). Yeast colonies were cultured overnight in liquid SD-UWH medium, harvested, washed twice in sterile water, and the absorbance (OD600) of the cultures was adjusted to 0.2 in liquid SD galactose/raffinose-UWH medium (BD Biosciences).
For liquid Y2H assays, cultures were supplemented with designated concentrations of JA-Ile (10 or 30 μM), COR (1 μM), or DMSO. After 16-h incubation with ligands, the liquid cultures were processed through the Beta-Glo Assay system (Promega) for detecting the β-galactosidase activity. […] Protein expression in yeast was detected using anti-LexA antibody (1:5,000; Upstate Biotechnology) for detection of COI1 expression from pGilda vector and anti-HA (1:5,000; Roche Life Science) antibody for detection of JAZ9 expression in pB42AD vector.

COI1-JAZ9 interaction [2] = assay: Y2H assays on plates for protein-protein interaction; format: cell-based, Arabidopsis; conditions: 10 μM COR, yeast
Procedure: as §1
For Y2H assays on plates, 10-μL culture was spotted onto SD galactose/raffinose-UWH plates with 80 μg/mL X-gal and 10 μM COR (Sigma-Aldrich). Blue color indicated protein-protein interactions after 5-7 days of incubation at 30° C.

Row | Molecule | COR-dependent COI1-JAZ9 interaction (COI1-JAZ9 interaction [2]) | further results
1 | CC/C=C\C[C@H]1C(=O)CC[C@@H]1CC(=O)N[C@H](C(=O)O)[C@@H](C)CC [JA-Ile, jasmonoyl-L-isoleucine, reference compound] | – | concentrations equivalent in promoting the COI1-JAZ9 interaction (COI1-JAZ9 interaction [1]; JA-Ile is a mixture of active and inactive isomers, COR pure): 10 µM
2 | B1 | reduced | –
3 | B2 | reduced | –
4 | B3 | reduced | –
5 | B4 | reduced | –
6 | B5 | disrupted | COR-dependent COI1-JAZ9 interaction (COI1-JAZ9 interaction [2]; listed as Y444): reduced
7 | B6 | reduced | –
8 | B7 | reduced | –
9 | B8 | reduced | –
10 | B9 | reduced | –
11 | B10 | reduced | –
12 | B11 | disrupted | COR-dependent COI1-JAZ9 interaction (COI1-JAZ9 interaction [2]; listed as Y302): reduced
13 | B12 | reduced | –
14 | B13 | reduced | –
15 | B14 | reduced | –
16 | B15 | disrupted | COR-dependent COI1-JAZ9 interaction (COI1-JAZ9 interaction [2]; listed as R326): reduced
17 | B16 | reduced | –
18 | B17 | reduced | –
19 | B18 | reduced | –
20 | B19 | reduced | –
21 | B20 | – | differential effect on JA-Ile-dependent vs COR-dependent COI1-JAZ9 interaction (COI1-JAZ9 interaction [1]; liquid Y2H): affect JAIle-dependent interaction more than COR-dependent interaction
22 | B21 | reduced | –
23 | B22 | reduced | –
24 | B23 | reduced | –
25 | B24 | reduced | –
26 | B25 | reduced | –
27 | B26 | reduced | –
28 | B27 | reduced | –
29 | B28 | reduced | –
